Measured values: patent US20090324601A1 (published 2009)

B1: 2.2002.3 (antibody, V domains shown)
VH: QVQLVESGGGVVQPGRSLRVSCAASGFMFRSYGMHWVRQAPGKGLEWVAVIWHDGSNKNHGDSVKGRFTISRDNSKNTLYLQMNSLRAEDTAVYYCARGRLAGGGPYYYYYYGMDVWGQGTTVTVSS
VL: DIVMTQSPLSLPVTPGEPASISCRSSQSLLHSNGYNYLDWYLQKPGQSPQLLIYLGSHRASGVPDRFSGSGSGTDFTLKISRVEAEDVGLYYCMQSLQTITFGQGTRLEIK
B2: 2.414.2 (antibody, V domains shown)
VH: QLQLQESGPGLVKPSETLSLTCTVSGGSISSSNYYWGWIRQPPGKGLEWIGTIYYTGSTYYNPSLKSRVTISVDTSKNQFSLKLSSVTAADTAVYYCARHHWVFDYWGQGTLVTVSS
VL: EIVLTQSPDFLSVTPKEKVTITCRASQIIGSSLHWYQQKPDQSPKLLIKYASQSFSGVPSRFSGSGSGTDFTLTLNSLEAEDAATYYCHQSTILPWTFGQGTKVEIK
notes: Variable regions only
B3: 2.542.2 (antibody, V domains shown)
VH: QLQLQESGPGLVKPSETLSLTCTVSGGSISSSTYYWGWIRQPPGKGLEWIGTIYYSGSTYYNPSLKSRVTISVDTSKNQFSLKLNSVTAADTAVYYCARHHWVFDYWGQGTLVTVSS
VL: EIVLTQSPDFLSVTPKEKVTITCRASQIIGSSLHWYQQKPDQSPNLLIKYASQSVSGVPSRFSGSGSGTDFTLTLNSLEAEDAATYYCHQSTILPWTFGQGTKVEIK
notes: Variable regions only
B4: 2.796.2 (antibody, V domains shown)
VH: QVQLVESGGGLVKPGGSLRLSCAASGFTFSDYYMNWIRQAPGKGLEWVSYISSSGSIIYYADSVKGRFTISRDNAKNSLYLQMNSLRAEDTAVYYCARDGHIAARGMDVWGQGTTVTVSS
VL: DIQMTQSPSSLSASVGDRVTITCRASQSFSRYINWYQQKPGKAPKLLIYAASSLQGGVPSRFSGSGSGTDFTLTISSLQPEDFATYYCQQTYSNPPITFGQGTRLEIK
notes: Variable regions only
B5: 2.737.1.4 (antibody, V domains shown)
VH: QVQLVESGGGLVKPGGSLRLSCAASGFTFRDYYMSWIRQAPGKGLEWVAFISSSGSIIYYADSVKGRFTISRDNAKNSLFLQMNSLRAEDTAVYYCARDGHIAARGMDVWGQGTTVTVSS
VL: DIQMTQSPSSLSASVGDRVTITCRASQSINKYINWYQQKPGKAPKLLIYAASSLQSGVPSRFNGSGSGTDFTFTINTLQPEDFATYYCQQTYSTPPITFGQGTRLEIK
notes: Variable regions only
B6: 2.449.1.3 (antibody, V domains shown)
VH: QVQLVESGGGLVKPGGSLRLSCAASGFTFSDYYMNWIRQAPGKGLEWVSYISSSGSIIYYADSVKGRFTISRDNAKNSLYLQMNSLRAEDTAVYYCAREGRIAARGMDVWGQGTTVTVSS
VL: DIQMTQSPSSLSASVGDRVSITCRPSQSFSRYINWYQQKPGKAPKLLIHAASSLVGGVPSRFSGSGSGTDFTLTISSLQPEDFATYYCQQTYSNPPITFGQGTRLEMK
notes: Variable regions only
B7: 2.2071.1.3 (antibody, V domains shown)
VH: QVQLVESGGGLVKPGGSLRLSCAASGFTFSDYYMNWIRQAPGKGLEWVSYISSSGSIIYYADSVKGRFTISRDNAKNSLYLQMNSLRAEDTAVYYCARDGRIVARGMDVWGQGTTVTVSS
VL: DIQMTQSPSSLSASVGDRVTLTCRASHSINRYINWYQQKPGKAPKLLIYAASSLQSGVPSRFSGNGSGTDFTLTISSLQPEDFATYYCQQSYSTPPITFGQGTRLEIT
notes: Variable regions only
B8: 2.351.3 (antibody, V domains shown)
VH: QVQLVQSGAEVKKPGASVKVSCKASGYTFIGYYLHWVRQAPGQGLEWMGSINPNSGGTNYAQKFQGRVTMIRDTSINTAYMELSRLRSDDTAVYYCARDKRITMVRGVHYLYYGWDVWGQGTTVTVSS
VL: DIQMTQSPSSLSASVGDRVTITCRASQVISNYLAWYQQKPGKVPQLLIYAASTLQSGVPSRFSGSGSGTDFTLTISSLQPEDVATYYCQNYKSAPWTFGQGTKVEIK
notes: Variable regions only
B9: 3.818.4 (antibody, V domains shown)
VH: EVQLVESGGGLVQPGGSLRLSCAASGFTFSSYSMNWVRQAPGKGLEWVSYISGSSTTMYYADSVKGRFTISRDNAKNSLYLQMNSLRDEDTAVYYCARLRHFDWSYAFDIWGQGTMVTVSS
VL: DIQMTQSPSSVSTSVGDRVTITCRASQGISSWLAWYQQRPGKAPKLLIYAASSLQSGVPSRFSGSGSGTDFTLTISSLQPEDFATYFCQQATSFPFTFGPGTKVGIK
B10: 3.87.1.1 (antibody, V domains shown)
VH: QVQLVESGGGVVQPGRSLRLSCAASGFTFSSYGMHWVRQAPGKGLEWVAVIWYDRSNKYYADSVKGRFTISRDNSKNTLYLQMNSLRAEDTAVYYCAGGRSRGAFDYWGQGTLVTVSS
VL: DIQMTQSPSSVSASVGDRVTITCRASQGISSWLAWYQQKPGKAPKLLIFAASSLQSGVPSRFSGSGSGTDFTLTISSLQPEDFATYYCQRTNSFPRTFGQGTKVEIK
notes: Variable regions only
B11: 3.472.1.1 (antibody, V domains shown)
VH: QVQLVESGGGVVQPGRSLRLSCAASGFTFSSYGMHWVRQAPGKGLEWVAVIWYDRSNKYYVDSVKGRFTISRDNSKNTLYLQMNSLRAEDTAVYYCAGGRSRGAFDYWGQGTLVTVSS
VL: DIQMTQSPSSVSASVGDRVTITCRASQDISSWLAWYQQKPGKAPKLLIFAASSLQSGVPSRFSGSGSGTDFTLTISSLQPEDFATYYCQRTSSFPRTFGQGTKVEIK
notes: Variable regions only
B12: 3.805.1.3 (antibody, V domains shown)
VH: QVQLVESGGGVVQPGRSLRLSCAASGFTFSSYGMHWVRQAPGKGLEWVAVIWYDRSNKYYADSVKGRFTISRDNSKNTLYLQMNSLRAEDTAVYYCAGGRSRGAFDYWGQGTLVTVSS
VL: DIQMTQSPSSVSASVGDRVTITCRASQGISSWLAWYQQKPGKAPNLLIYAASSLQSGVPSRFSGSGSGTDFTLTISSLQPEDFATYYCQRTNNFPRTFGQGTKVEIK
notes: Variable regions only
B13: 3.772.2 (antibody, V domains shown)
VH: QVQLVESGGGVVQPGRSLRLSCAASGFTFSSYGMHWVRQAPGKGLEWVAVIWYDRSNKYYADSVKGRFTISRDNSKNTLYLQMNSLRAEDTAVYYCAGGRSRGAFDFWGQGTLVTVSS
VL: DIQMTQSPSSVSASVGDRVTITCRASQDISSWLAWYQQKAGKAPKLLIYAASSLQSGVPSRFSGSGSGTDFTLTISSLQPEDFATYYCQRTNSFPRTFGQGTKVEIK
notes: Variable regions only
B14: 3.457.3.1 (antibody, V domains shown)
VH: QVQLVESGGGVVQPGRSLRLSCAASGFTFSSYGMHWVRQAPGKGLEWVAVIWYDRSNKYYADSVKGRFTISRDNSKNTLYLQMNSLRAEDTAVYYCAGGRSRGAFDFWGQGTLVTVSS
VL: DIQMTQSPSSVSASVGDRVTITCRASQGISSWLAWYQQKAGKAPKLLIYSASSLQSGVPSRFSGSGSGTDFTLTISSLQPEDFATYYCQRTNSFPRTFGQGTKVEIK
notes: Variable regions only
B15: 3.457.3.1 (antibody, V domains shown)
VH: QVQLVESGGGVVQPGRSLRLSCAASGFTFSSYGMHWVRQAPGKGLEWVAVIWYDRSNKYYADSVKGRFTISRDNSKNTLYLQMNSLRAEDTAVYYCAGGRSRGAFDFWGQGTLVTVSS
VL: DIQMTQSPSSVSASVGDRVTITCRASQGISSWLAWYQQKAGKAPKLLIYSASSLQSGVPSRFSGSGSGTDFTLTISSLQPEDFATYYCQRTNSFPRTFGQGTKVEIK
B16: 3.772.2 (antibody, V domains shown)
VH: QVQLVESGGGVVQPGRSLRLSCAASGFTFSSYGMHWVRQAPGKGLEWVAVIWYDRSNKYYADSVKGRFTISRDNSKNTLYLQMNSLRAEDTAVYYCAGGRSRGAFDFWGQGTLVTVSS
VL: DIQMTQSPSSVSASVGDRVTITCRASQDISSWLAWYQQKAGKAPKLLIYAASSLQSGVPSRFSGSGSGTDFTLTISSLQPEDFATYYCQRTNSFPRTFGQGTKVEIK
B17: 3.805.1.3 (antibody, V domains shown)
VH: QVQLVESGGGVVQPGRSLRLSCAASGFTFSSYGMHWVRQAPGKGLEWVAVIWYDRSNKYYADSVKGRFTISRDNSKNTLYLQMNSLRAEDTAVYYCAGGRSRGAFDYWGQGTLVTVSS
VL: DIQMTQSPSSVSASVGDRVTITCRASQGISSWLAWYQQKPGKAPNLLIYAASSLQSGVPSRFSGSGSGTDFTLTISSLQPEDFATYYCQRTNNFPRTFGQGTKVEIK
B18: 3.472.1.1 (antibody, V domains shown)
VH: QVQLVESGGGVVQPGRSLRLSCAASGFTFSSYGMHWVRQAPGKGLEWVAVIWYDRSNKYYVDSVKGRFTISRDNSKNTLYLQMNSLRAEDTAVYYCAGGRSRGAFDYWGQGTLVTVSS
VL: DIQMTQSPSSVSASVGDRVTITCRASQDISSWLAWYQQKPGKAPKLLIFAASSLQSGVPSRFSGSGSGTDFTLTISSLQPEDFATYYCQRTSSFPRTFGQGTKVEIK

How the values were obtained:
[1] = target: PDGFR-alpha on MG-63 cells (human, UniProt P16234 24-1089); experiment: cell-based or functional assay; further: test concentration or dose not given here
PDGFR-beta = PDGFR-beta (UniProt P09619 33-530, limits assumed); experiment: method not described
FLT3 = FLT3 (UniProt P36888 27-541, limits assumed); experiment: method not described
c-kit = c-kit (UniProt P10721 26-520, limits assumed); experiment: method not described
CSF-1R = CSF-1R (UniProt P07333 20-512, limits assumed); experiment: method not described
Sequence of CSF-1R (P07333 20-512 limits assumed): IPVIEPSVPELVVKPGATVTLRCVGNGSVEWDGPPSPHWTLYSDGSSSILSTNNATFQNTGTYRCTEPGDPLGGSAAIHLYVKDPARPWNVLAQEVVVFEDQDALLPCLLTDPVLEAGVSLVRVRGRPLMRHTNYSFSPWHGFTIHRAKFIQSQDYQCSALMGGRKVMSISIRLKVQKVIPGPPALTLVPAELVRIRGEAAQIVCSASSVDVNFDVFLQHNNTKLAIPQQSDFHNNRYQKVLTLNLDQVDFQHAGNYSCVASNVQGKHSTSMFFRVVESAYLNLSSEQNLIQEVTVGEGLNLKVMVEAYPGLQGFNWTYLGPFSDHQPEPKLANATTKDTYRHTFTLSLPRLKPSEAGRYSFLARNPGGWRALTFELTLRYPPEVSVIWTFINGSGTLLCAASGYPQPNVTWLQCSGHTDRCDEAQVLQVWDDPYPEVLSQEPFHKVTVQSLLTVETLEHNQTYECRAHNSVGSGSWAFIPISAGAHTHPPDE

Sequence of c-kit (P10721 26-520 limits assumed): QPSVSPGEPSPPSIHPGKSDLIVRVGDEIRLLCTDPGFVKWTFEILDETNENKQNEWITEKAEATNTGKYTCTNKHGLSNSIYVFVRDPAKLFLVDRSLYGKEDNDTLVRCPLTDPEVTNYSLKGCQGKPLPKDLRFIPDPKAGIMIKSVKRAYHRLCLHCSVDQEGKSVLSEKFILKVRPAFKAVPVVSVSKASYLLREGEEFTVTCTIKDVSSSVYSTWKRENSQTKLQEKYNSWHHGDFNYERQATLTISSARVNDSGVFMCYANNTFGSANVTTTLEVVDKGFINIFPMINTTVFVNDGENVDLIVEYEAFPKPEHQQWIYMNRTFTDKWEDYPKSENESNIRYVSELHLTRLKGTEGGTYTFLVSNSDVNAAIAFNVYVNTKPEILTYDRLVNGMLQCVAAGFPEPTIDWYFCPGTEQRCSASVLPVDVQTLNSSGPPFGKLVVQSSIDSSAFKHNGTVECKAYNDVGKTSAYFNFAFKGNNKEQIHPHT
Sequence of PDGFR-alpha on MG-63 cells (P16234 24-1089): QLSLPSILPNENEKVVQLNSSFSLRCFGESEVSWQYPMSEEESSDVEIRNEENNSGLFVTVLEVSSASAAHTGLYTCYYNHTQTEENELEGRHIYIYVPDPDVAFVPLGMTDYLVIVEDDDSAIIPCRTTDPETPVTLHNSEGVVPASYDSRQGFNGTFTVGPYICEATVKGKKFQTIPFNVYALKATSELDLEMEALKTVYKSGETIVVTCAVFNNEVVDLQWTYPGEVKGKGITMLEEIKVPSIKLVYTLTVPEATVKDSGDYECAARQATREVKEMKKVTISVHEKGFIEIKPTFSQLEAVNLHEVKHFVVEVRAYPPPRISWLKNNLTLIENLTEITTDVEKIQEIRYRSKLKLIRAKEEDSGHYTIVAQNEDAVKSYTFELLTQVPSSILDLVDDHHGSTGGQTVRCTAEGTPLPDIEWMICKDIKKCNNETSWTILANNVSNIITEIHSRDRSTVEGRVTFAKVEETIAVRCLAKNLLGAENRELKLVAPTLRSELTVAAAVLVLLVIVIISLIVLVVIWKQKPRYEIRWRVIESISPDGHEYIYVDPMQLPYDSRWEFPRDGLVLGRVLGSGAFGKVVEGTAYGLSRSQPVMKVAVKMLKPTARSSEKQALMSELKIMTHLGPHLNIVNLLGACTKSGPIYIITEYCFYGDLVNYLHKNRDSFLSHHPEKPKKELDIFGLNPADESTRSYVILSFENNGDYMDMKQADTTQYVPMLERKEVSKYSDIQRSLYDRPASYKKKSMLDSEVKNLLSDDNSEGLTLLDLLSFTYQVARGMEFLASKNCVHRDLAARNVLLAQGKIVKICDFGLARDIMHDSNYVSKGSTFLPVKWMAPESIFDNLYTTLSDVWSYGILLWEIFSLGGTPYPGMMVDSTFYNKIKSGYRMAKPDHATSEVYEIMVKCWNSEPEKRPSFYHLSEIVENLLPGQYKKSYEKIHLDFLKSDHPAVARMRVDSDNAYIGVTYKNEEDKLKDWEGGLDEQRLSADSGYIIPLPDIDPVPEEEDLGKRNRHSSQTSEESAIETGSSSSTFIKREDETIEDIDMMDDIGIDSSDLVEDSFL
Sequence of PDGFR-beta (P09619 33-530 limits assumed): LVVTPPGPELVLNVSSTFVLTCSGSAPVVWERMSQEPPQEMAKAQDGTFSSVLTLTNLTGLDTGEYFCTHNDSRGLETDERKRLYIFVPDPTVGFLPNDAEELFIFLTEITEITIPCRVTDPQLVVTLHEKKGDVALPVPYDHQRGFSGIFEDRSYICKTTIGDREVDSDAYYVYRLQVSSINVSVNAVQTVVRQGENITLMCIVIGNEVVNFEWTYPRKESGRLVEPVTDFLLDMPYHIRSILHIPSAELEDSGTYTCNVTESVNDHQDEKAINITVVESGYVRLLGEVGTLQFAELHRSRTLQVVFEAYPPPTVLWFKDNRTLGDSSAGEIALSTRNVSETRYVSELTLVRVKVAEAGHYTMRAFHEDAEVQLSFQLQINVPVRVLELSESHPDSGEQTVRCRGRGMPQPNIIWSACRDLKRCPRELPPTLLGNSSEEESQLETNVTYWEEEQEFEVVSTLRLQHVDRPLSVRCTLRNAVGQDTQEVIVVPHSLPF

Binder | Average pTyr Inhibition [1] [%] | binding result (PDGFR-beta) | binding result (FLT3) | binding result (c-kit) | binding result (CSF-1R)
B1 | > 100 |  |  |  | 
B2 |  | no binding | no binding | no binding | no binding
B3 |  | no binding | no binding | no binding | no binding
B4 |  | no binding | no binding | no binding | no binding
B5 |  | no binding | no binding | no binding | no binding
B6 |  | no binding | no binding | no binding | no binding
B7 |  | no binding | no binding | no binding | no binding
B8 |  | no binding | no binding | no binding | no binding
B9 | > 100 |  |  |  | 
B10 |  | no binding | no binding | no binding | no binding
B11 |  | no binding | no binding | no binding | no binding
B12 |  | no binding | no binding | no binding | no binding
B13 |  | no binding | no binding | no binding | no binding
B14 |  | no binding | no binding | no binding | no binding
B15 | > 100 |  |  |  | 
B16 | 91 |  |  |  | 
B17 | 92 |  |  |  | 
B18 | 95 |  |  |  | 
